Test results from FireProtDB (doi:10.1021/bi9929958).

Conditions: Homo sapiens; pH 7.8; Thermal; DSC; Potassium phosphate 20 mM; reversible: yes; whole UniProt chain shown

B1: Superoxide dismutase [Mn], mitochondrial wild type, P04179 (protein)
chain: MLSRAVCGTSRQLAPVLGYLGSRQKHSLPDLPYDYGALEPHINAQIMQLHHSKHHAAYVNNLNVTEEKYQEALAKGDVTAQIALQPALKFNGGGHINHSIFWTNLSPNGGGEPKGELLEAIKRDFGSFDKFKEKLTAASVGVQGSGWGWLGFNKERGHLQIAACPNQDPLQGTTGLIPLLGIDVWEHAYYLQYKNVRPDYLKAIWNVINWENVTERYMACKK
  Tm: 88.9 °C
